According to the supplement of paper PMC9170038:

Tested on: MS2 coat protein
Assay: apparent KD of MS2 coat protein; designed switch direction (-1 OFF switch, 1 ON switch): -1; higher = weaker reporter binding
In short: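 Each step of the titration lasted 0.8–1.5 h at the lowest concentration and 10–20 min at the highest. The protein, SNAP-549-labelled MS2 coat protein, went from 0.7 or 1.5 nM doubling to 3 µM over RNA switches transcribed on Illumina chips by stalled E. coli RNA polymerase. Normalised cluster fluorescence was curve-fitted, and the per-design median over clusters is given as apparent KD.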

[1] = input ligand: microRNA oligo, concentration not stated
[2] = Eterna round: R95, input ligand: microRNA oligo, concentration not stated
[3] = Eterna round: R95, input ligand: FMN 200 uM
[4] = Eterna round: R95, input ligand: none

Sequence	apparent KD of MS2 coat protein (input ligand: FMN 200 uM)	apparent KD of MS2 coat protein [1]	apparent KD of MS2 coat protein (input ligand: none)	apparent KD of MS2 coat protein [2]	apparent KD of MS2 coat protein [3]	apparent KD of MS2 coat protein [4]
UCACGGGACUGAGGAUAUACAUCAACAAUGGUUGUAGAAGGCAGAAGGUUGAAUCAUAUACUAAACAUGAGGAUCACCCAUGUU [JR_ExcNG1_Sub031] (Eterna round: R96, puzzle: Exclusion NG 1)	16.4 nM	16.6 nM	24.1 nM			
UAUUAGCAAGUGAGAUCCCACAUGAGGAUCACCCAUGUGCUCGUCUUAUAAGGUACUGUGACGAGAGUCACGGUACC [Mat - Sensor, turn-off var - Eli Mod - D2] (Eterna round: R97, puzzle: Sensor, turn-off variant 1)	46.1 nM		44.7 nM			
AGAUCACAUGAGGAUCACCCAUGUCAGGAUAUCUACAUUGAAGCUUCGGCUUCAAUGUAGAGAAGGGAUAAUUA [E1/4-B1] (Eterna round: R97, puzzle: Exclusion 1)	119 nM		62.2 nM			
ACAUGAGGAUCACCCAUGUCCGUCUGGUCUGUCUCGGCUGUCGAGGAUAUAGCCCGGUAUCCGCGCUAGAAGGCGGGAGUCGGC [Aenatbe mod 97] (Eterna round: R96, puzzle: Exclusion NG 3)	23.1 nM	24.5 nM	29.6 nM			
UGUUGUUCAGGAUAUGAUGUAUAAUACAUGAGGAUCACCCAUGUAGAUCCUGAAUUAGCGUCAGAAGGGAAUGUUG [salish99_ex5_r4_104] (Eterna round: R97, puzzle: Exclusion 5)	18 nM		21.1 nM			
UGCGGUAGAGGAUAUACGUAGAAAUAGAUUCAUGUAAAACUACAUGAGGAUCACCCAUGUAGAAGGCUAUCGCU [JL-ex2-4.27 Eli mod] (Eterna round: R97, puzzle: Exclusion 2)	265 nM		25.8 nM			
AUUUAAUUUAAUAAGAUCACAUGAGGAUCACCCAUGUUAUAAUAGGAUAUCAGCUCGUUUAGAGCUGAGAAGGAUUAUAACAUG [ExNG3/9-A2] (Eterna round: R96, puzzle: Exclusion NG 3)	31.8 nM	20.8 nM	7.21 nM			
UAUUAAUGCAAGGAUAUGCUUUUAAUUUUUUUUGCAGAAGGUGCAACAUGAGGAUCACCCAUGUUUCAGGGUAU [JR_E6_Sub031] (puzzle: Exclusion 6)				35.1 nM		
GUGUACAGAGGAUAUACACGAGGAGUUACGAAAGUAACUUCACAUGAGGAUCACCCAUGUAGAAGGCUGUACAC [Dot plot directed v6] (puzzle: Exclusion 2)				25.4 nM		
UCGCUGCGAGGAUAUACAUGAGGAUCACCCAUGUACGGGUCCGGGUCUUCGUCCAUUAGUAGAAGGCGCAGUGA [JL Laongeedie mod 2] (puzzle: Exclusion 3)				47.7 nM		
AAUGGGUGUGUGAGGAUAUACGAUGGCAGUUGCCAGUAGAAGGUACAUGAGGAUCACCCAUGUGUCCAAAAGUG [Aquin] (puzzle: Brourd's mod of Exclusion 4)				11.9 nM		
AAGAGGCGGACAGGAUAUGGGAAAUUGUAAAGACCAGAAGGGUCGGCGAAAAUACAUGAGGAUCACCCAUGUGAAUCAUGACCA [AK ExNG1-7] (Eterna round: R96, puzzle: Exclusion NG 1)	89.1 nM	31.6 nM	42.5 nM			
AAGAAACAUGAGGAUCACCCAUGUGAGGAUAUGGCCCGCCCGGCGUGAGCAAAAUAAAUCAGAAGGCACAAAGG [salish99_ex1_r4_009] (Eterna round: R97, puzzle: Exclusion 1)	41 nM		30.6 nM			
AAGAAACAUGAGGAUCACCCAUGUGAGGAUAUGAAAAAUAAAAUAAAAGAAAUAAUAAUCAGAAGGCACAAAGG [Mat - Mod of Hog D8] (puzzle: Exclusion 1)				36.1 nM	44.5 nM	30.5 nM
CUGAAUCGAGGAUAUACAUGAGGAUCACCCAUGUAUACUGUCUUGGUGAGAGUCCCGUGUAGAAGGCGACAGGC [EX3 B.6] (Eterna round: R97, puzzle: Exclusion 3)	60.1 nM		35.9 nM			
ACUGGUCGAGGAUAUAUAUGACGUGCUUCGGCACGAAGAUCACAUGAGGAUCACCCAUGUAGAAGGCGACCAGU [E2/8-A2] (Eterna round: R97, puzzle: Exclusion 2)	731 nM		130 nM			
AGGUGUAGAGGAUAUACUGCAAAGCACAUGAGGAUCACCCAUGUCCCUCUAUGAGAUUAAGUAGAAGGCUACACCA [Omei Ex5 C4] (Eterna round: R97, puzzle: Exclusion 5)	55.7 nM		49.9 nM			

Sequence	apparent KD of MS2 coat protein (input ligand: FMN 200 uM)	apparent KD of MS2 coat protein [1]	apparent KD of MS2 coat protein (input ligand: none)	apparent KD of MS2 coat protein [2]	apparent KD of MS2 coat protein [3]	apparent KD of MS2 coat protein [4]
CCCAUGUCAGGAUAUUAAUUGAGCAGGAAGCCCUGUCCACUUGAGAAGGGACAUGAGGAUCACCCAUGUAAAAC [Radiaena] (Eterna round: R97, puzzle: Exclusion 4)	138 nM		417 nM			
GAAAAGGUAGGAUAUACGAAAAAAAAGGGUAGAAAUAAAACACAUGAGGAUCACCCAUGUAGAAGGACCAAAAG [salish99_ex2_r3_076] (puzzle: Exclusion 2)				20.9 nM	74.5 nM	15.5 nM
AUUGGACACUCAGGAUAUCAGGUUCUAUACAUGAGGAUCACCCAUGUGGGCGAACCCAUGAUAGCUGAGAAGGGAGUAAUCCUA [Orxete] (Eterna round: R96, puzzle: Exclusion NG 2)	39 nM	11.9 nM	19.4 nM			
ACAUGUAUUGCAGGAUAUGGGACACAUGAGGAUCACCCAUGUGACUACAUGUCAUACCACGCGUCUCAGAAGGGUAUGUACAUG [Ex NG2 #39] (Eterna round: R96, puzzle: Exclusion NG 2)	27.7 nM	14 nM	21.5 nM			
GAUUAACAUGAGGAUCACCCAUGUGAGGAUAUACGAGAAUAGAUUUCGAUCAGAUAGAGUAGAAGGCACAGAUA [EX1 #1] (Eterna round: R97, puzzle: Exclusion 1)	44.9 nM		27 nM			
GGCCCGCGCGUGAGGAUAUGCUGAUACUAGGAUUAGCAGAAGGCACAUGAGGAUCACCCAUGUCCAACUUGUCU [LRO-BmodExc4-11- Bluer = mod of Colors by Tatyana Zabanova] (Eterna round: R97, puzzle: Brourd's mod of Exclusion 4)	34.4 nM		24.5 nM			
UAUCCGACAGGAUAUACAUGAGGAUCACCCAUGUACCCACUGUAUGUAACCUCAAACUGUAGAAGGGUUGAUAU [Eternabot (L1) Solution 18] (Eterna round: R97, puzzle: Exclusion 3)	21.2 nM		28.6 nM			
ACUUCACAUGAGGAUCACCCAUGUGAGGAUAUCGUCGAGGAUGUAAUGCCAUCCGUGACGAGAAGGCGCAUGGU [Exclusion 1 (Mod 2.1 solution 40 by Eternabot)] (Eterna round: R97, puzzle: Exclusion 1)	147 nM		31.1 nM			
CCUCGUGCACGAGGAUAUUGGAAAGGAAGUGUACGAGAAGGCGUGCCGAGGGAACAUGAGGAUCACCCAUGUGGCCUCAUCACA [PowerStrip EXNG 1.13] (Eterna round: R96, puzzle: Exclusion NG 1)	120 nM	97.5 nM	152 nM			
CAUGAUCUUCGGAUCAUGUACAUGAGGAUCACCCAUGUUACGAGUUGAUUUUCAUACAAGCUUUUUGCUCGUCUUAU [Sensor v3 - Turn-off variant 1 - 27] (puzzle: Sensor v3, turn-off variant 1)				330 nM	226 nM	240 nM
UUUUACAUAGGAUAUAGUCUUUUUUACAUGAGGAUCACCCAUGUCUCUCUUUUUUUUUUUCUAGAAGGAUGUUUUU [JR_E5_Sub017] (puzzle: Exclusion 5)				16.8 nM		
UAUAUGUCAGGAUAUCGAUUGGAAUGGAAUUUAGUUUUGGUUGAGAAGGGACAUGAGGAUCACCCAUGUUUUUC [EX4 #62] (Eterna round: R97, puzzle: Exclusion 4)	76.7 nM		32.1 nM			
ACAUUGAUUGUGAGGAUAUCGAUGUGAUGGUAUGUCGAGAAGGCACAUGAGGAUCACCCAUGUGGGUUGUAGCA [JR_BMEx4_Sub035] (Eterna round: R97, puzzle: Brourd's mod of Exclusion 4)	291 nM		95.2 nM			
AGUUGGCGAGGAUAUACAUGAGGAUCACCCAUGUGAAAUCCAAGUGAGGAAAUGAAAAGUAGAAGGCGCUGACA [Mod of Mat 23 - Jieux - Exclusion 3] (Eterna round: R97, puzzle: Exclusion 3)	50 nM		20.8 nM			
AUAAUGUCAGGAUAUCAGUCGACUAGCCUCGGCUAGUCGACUGAGAAGGGACAUGAGGAUCACCCAUGUGUUUC [E4/14-A2] (Eterna round: R97, puzzle: Exclusion 4)	811 nM		569 nM			
GAUUGCUCGUCUUGAAAACACAUGAGGAUCACCCAUGUAACUAGGGAAACCACGAUUAUAUUCGCUUUUCAGUGUAA [Eternabot (L2) Solution 2] (Eterna round: R97, puzzle: Sensor, turn-off variant 1)	29.6 nM		34.2 nM			
GGCCCAUGAGGAUAUCAGUCUGGAUCAGACUAGAUCCUGACUGAGAAGGCACAUGAGGAUCACCCAUGUAGGCC [Eli 4x 4.30] (Eterna round: R97, puzzle: Exclusion 4)	17.3 nM		23.6 nM			
